# Results as given in paper PMC9736959, “Enzyme-Linked Aptamer Kits for Rapid, Visual, and Sensitive Determination of Lactoferrin in Dairy Products”.
# B1: Lf aptamer (biotin-Apt) (ssDNA)
# DNA: TGGTGCTGCCCCCCTAGTCTCCGGCTGCTTCTTGG
# modifications: 5' biotin (so in the source)
# Biological target: lactoferrin (Lf) (bovine (from bovine milk), UniProt P24627 20-708)
# Assay: competition (indirect competitive enzyme-linked aptamer assay against immobilized cDNA S2); linear 25-500 nM Lf, LOD 14.01 nM (not a Kd); aptamer as SA-HRP conjugate; PBS pH 7.2, about 25 °C; Lf and recognition probe 5 min, then 30 min on cDNA-coated plate; PBS-T (0.05% Tween-20) washes
# Details: protein: commercial; label: biotin; coupled to SA-HRP in the recognition probe; capture strand S2 is not an exact complement (fewer G opposite the C run)
# lactoferrin (Lf), sequence (P24627 20-708): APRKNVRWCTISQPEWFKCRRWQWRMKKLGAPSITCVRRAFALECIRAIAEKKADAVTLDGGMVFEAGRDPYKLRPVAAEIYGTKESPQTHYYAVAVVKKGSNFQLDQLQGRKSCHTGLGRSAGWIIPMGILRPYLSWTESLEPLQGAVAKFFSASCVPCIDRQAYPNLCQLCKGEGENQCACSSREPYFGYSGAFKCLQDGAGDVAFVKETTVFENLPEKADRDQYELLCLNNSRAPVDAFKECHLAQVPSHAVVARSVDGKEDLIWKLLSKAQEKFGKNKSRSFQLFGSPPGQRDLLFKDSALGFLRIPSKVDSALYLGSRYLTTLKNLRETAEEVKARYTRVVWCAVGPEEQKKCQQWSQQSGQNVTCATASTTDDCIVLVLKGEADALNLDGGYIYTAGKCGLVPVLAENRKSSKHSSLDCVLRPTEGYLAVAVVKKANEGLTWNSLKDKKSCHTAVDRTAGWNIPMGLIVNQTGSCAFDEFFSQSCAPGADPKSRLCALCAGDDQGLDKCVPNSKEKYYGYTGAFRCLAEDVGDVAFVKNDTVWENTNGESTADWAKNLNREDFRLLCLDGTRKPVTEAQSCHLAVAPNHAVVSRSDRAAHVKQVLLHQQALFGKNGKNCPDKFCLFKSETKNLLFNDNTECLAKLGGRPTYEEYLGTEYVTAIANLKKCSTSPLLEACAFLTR
binder,measurement,value
B1,binding result,binds
